Assay results published in publication PMC5810956 (Immunity, 2018).
Positions count from the first letter of the chain named.

B1: K03.1-12 lineage unmutated common ancestor (UCA) Fab (tag removed, for binding studies) (Fab, V domains shown)
VH: not shown
VL: QSALTQPASVSGSPGQSITISCTGTSSDVGSYNLVSWYQQHPGKAPKLMIYEGSKRPSGVSNRFSGSKSGNTASLTISGLQAEDEADYYCCSYAGSVVFGGGTKLTVL
B2: I-11 Fab (inferred evolutionary intermediate of the K03.1-12 lineage) (Fab, V domains shown)
VH: not shown
VL: B1 VL with I18V
B3: K03.12 Fab (tag removed, for binding studies) (Fab, V domains shown)
VH: EVQLVQSGAEVKKPGASVKVSCKTSGYTFTAYYLHWVRQAPGQGFEWMAWINPNTGDTNYAQKFQGRVTLSRDTSITTAYMELTRLRSDDTAVYYCAKDLTLMYVFDSGWARGAHDYYGMDVWGQGTTVAVSG
VL: PSALTQPASVSGSPGQSVTISCTGTNSDVGTFDLVSWYQQYPGKAPKLIIYEGSRRPSGVSDRFSGSKSGNTASLTISGLQAEDEADYYCSSYAGSVVFGGGTKLTVL
B4: K03.12 Fab for crystallization (noncleavable 6xHis tag) (Fab, V domains shown)
VH: B3 VH
VL: B3 VL

What was measured:
[1] = target: T1, HA head domain of A/Texas/50/2012 (H3N2) (Influenza A virus A/Texas/50/2012 (H3N2), strain); assay: BLI
[2] = target: HA head of A/Florida/904/2000 (H1N1) (Influenza A virus A/Florida/904/2000 …, UniProt Q91R26, strain); assay: BLI
[3] = target: T1, HA head domain of A/Texas/50/2012 (H3N2); assay: crystal structure

Binder	binding result [1]	binding result [2]	binding result [3]
B1	binds	binds	–
B2	binds	binds	–
B3	binds	binds	–
B4	–	–	binds
